Assay results as given in patent US20150104459A1.
Where a chain is given by its changes, count along the chain named.

B1: 3241_G23 (antibody, V domains shown)
VH: QVQLQQSGPGLVKPSQTLSLTCTVSGGPVSGGGYSWNWIRQRPGQGLEWVGFMFHSGSPRYNPTLKSRITISVDTSKNLVSLKLSSVTAADTAVYFCARVGQMDKYYAMDVWGQGTTVTVSS
VL: DIQMTQSPSSLSSSVGDRVTITCRASQSIGAYVNWYQQKAGKAPQVLIFGASNLQSGVPSRFSGSGSGTDFTLTISSLQPEDFATYFCQQTYSTPITFGQGTRLEIK
B2: 3244_I10 (antibody, V domains shown)
VH: QVQLQESGPGLLKPSDTLALTCTVSGGSITSDYWSWIRQPPGRGLDWIGFFYNGGSTKYNPSLKSRVTISADTSKNQLSLKLTSVTAADTGVYYCARHDAKFSGSYYVASWGQGTRVTVSS
VL: DIQMTQSPSSLSASVGDRVTISCRASQSISTYLNWYQQQPGKAPKVLIFGATNLQSGVPSRFSGSGSGTDFTLTISSLQPEDFATYYCQQSYNTPLIFGQGTKLEIK
B3: 3243_J07 (antibody, V domains shown)
VH: B2 VH with A100V
VL: B2 VL with F49S
B4: 3259_J21 (antibody, V domains shown)
VH: QVQLQESGPRVVRPSETLSLTCTVSGGSISSYNWIWIRQPPGKGLEWIGHIYDYGRTFYNSSLQSRPTISVDASKNQLSLRLTSVTASDTAVYYCARPLGILHYYAMDLWGQGTTVTVSS
VL: DIQMTQSPLSVSVSVGDRVTIACRASQSIDKFLNWYQQKPGKAPKLLIYGASNLHSGAPSRFSASGSGTDFTLTITNIQTEDFATYLCQQSFSVPAFGGGTKVEIK
B5: 3245_O19 (antibody, V domains shown)
VH: EVQLVESGGGLVQPGGSLRLSCTASGLSVSSTYMNWVRQAPGKGLEWVSVFYSETRTYYADSVKGRFTVSRHNSNNTLYLQMNSLRVEDTAVYYCARVQRLSYGMDVWGQGTTVTVSS
VL: DIQMTQSPSSLSASVGDRVTITCRASQSISTYLNWYQKRPGKAPKLLVYGASTLQSGVPSRFSGSGSGTDFTLTIASLQPEDSATYYCQQTYSIPLFGQGTRLEIK
B6: 3244_H04 (antibody, V domains shown)
VH: B5 VH with V87A
VL: B5 VL with T53S, T85V
B7: 3136_G05 (antibody, V domains shown)
VH: QVQLQESGPGLVKPSETLSLTCSVSGGSISSDFWSWIRQPPGKGLEWIGYVYNRGSTKYSPSLKSRVTISADMSKNQFSLNMSSVTAADTAVYYCAKNGRSSTSWGIDVWGKGTTVTVSS
VL: DIQMTQSPSSLSASVGDRLTITCRASQSISTYLHWYQQKPGKAPKLLIYAASSLQSGVPSRFSGSRSGTDFTLTISSLQPDDFATYYCQQSYSPPLTFGPGTKVDMK
B8: 3252_C13 (antibody, V domains shown)
VH: QVQLQESGPGLVKPSETLSLTCTVSGASISSDYWSWIRLPPGKGLEWIGYIYNRGSTKYTPSLKSRVTISLDTAENQFSLRLRSVTAADTAIYYCARHVGGHTYGIDYWGQGTLVTVSS
VL: DIQMTQSPSSLSASVGDRVTITCRASQSISNYLNWYQHKPGEAPKLLNYAASSLQSGVPSRFSASGSGTDFTLTISSLQPEDFATYYCQQSYNTPITFGQGTRLEIK
B9: 3255_J06 (antibody, V domains shown)
VH: B8 VH with I92V
VL: B8 VL with T74S, S77G, Q100P
B10: 3420_I23 (antibody, V domains shown)
VH: QVQLQESGPGLVKPSETLSVTCKVSGDSISSYSWSWIRQPPGKGLEWVGYLYYSGSTKYNPSLKSRTTISVDTSTNQLSLKLSFVTAADTAVYFCARTGSESTTGYGMDVWGQGTTVTVSS
VL: B8 VL with N31T, H38Q, E42K, N48I, Q55H, A64G, T72A, N93S, T94P
B11: 3139_P23 (antibody, V domains shown)
VH: QVQLQESGPRLVKPSESLSLTCTVSGGSISNSFWGWIRQPPGEGLEWIGYVYNSGNTKYNPSLKSRVTISRDTSKSQLYMKLRSVTAADTAVYYCARHDDASHGYSISWGHGTLVTVSS
VL: DIQMTQSPSSLSASVGDRVTITCRASQTISTYLNWYQQKSGKAPKLLIYAASGLQSGVPSRFSGSGSGTDFTLTISSLQPEDFATYFCQQSYNTPLTFGQGTKVEIK
B12: 3248_P18 (antibody, V domains shown)
VH: QVQLQESGPGLVKPSETLSLTCTVSGGSISAYHWSWIRQPPGKGLEWIGHIFDSGSTYYNPSLKSRVTISLDASKNQLSLRLTSVTASDTAIYYCARPLGSRYYYGMDVWGQGTTVTVSS
VL: DIQMTQSPSSLSASVGDRVTITCRASQSISRYLNWYQQKPGKAPKLLIYGASTLQNGAPSRFSGSGSGTDFTLTISSLQPEDSATYLCQQSYSVPAFGGGTKVEVK
B13: 3253_P10 (antibody, V domains shown)
VH: B2 VH
VL: B2 VL with F49S, N53D
B14: 3260_D19 (antibody, V domains shown)
VH: DMQLVESGGGLVPPGGSLRLSCAASGFSVSDNYINWVRQAPGKGLDWVSVFYSADRTSYADSVKGRFTVSSHDSKNTVYLQMNSLRAEDTAVYYCARVQKSYYGMDVWGQGTTVTVSS
VL: GIQMTQSPSSLSASVGDRVTITCRASQSISRYLNWYLQKPGKAPKLLISGASSLQSGVPSRFSGTGSGTEFTLTISSLQPEDFATYYCQQTFSIPLFGQGTKVEIK
B15: 3362_B11 (antibody, V domains shown)
VH: QVQLQASGPGLVKPSETLSLTCTVSGDSITSGAYYWTWIRQHPGKGLEWIGYIYYSGNTYYNPSLKSRVTISLDTSKNQFSLKVNSVTAADTAVYYCARAASTSVLGYGMDVWGQGTTVTVSS
VL: B8 VL with N31R, H38Q, K39E, E42K, N48V, A64G, N93S, I96L
B16: 3242_P05 (antibody, V domains shown)
VH: B14 VH
VL: B14 VL

Target: M2 protein of influenza A/Hong Kong/483/97 (H5N1) (influenza A virus A/Hong Kong/483/97 (H5N1))
Note: test concentration or dose not given here.

Compared with B1, B2 is lower in FACS M2-HK MFI: 1700 MFI for the first, 434 MFI for the second.

First: B3
Second: B4
The FACS M2-HK MFI of the first is lower: 131 MFI for the first, 1670 MFI for the second.

Going from B5 to B6, the FACS M2-HK MFI rises from 919 MFI to 963 MFI.

Going from B7 to B8, the FACS M2-HK MFI rises from 109 MFI to 449 MFI.

First: B9
Second: B10
The FACS M2-HK MFI of the first is higher: 442 MFI for the first, 112 MFI for the second.

Going from B11 to B12, the FACS M2-HK MFI rises from 110 MFI to 967 MFI.

First: B13
Second: B14
The FACS M2-HK MFI of the first is lower: 43 MFI for the first, 846 MFI for the second.

First: B15
Second: B16
The FACS M2-HK MFI of the first is lower: 218 MFI for the first, 596 MFI for the second.
